Test system: MS2 coat protein
Assay: apparent KD of MS2 coat protein; designed switch direction (-1 OFF switch, 1 ON switch): -1; higher = weaker reporter binding
Method in brief: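 Designed RNA switches were transcribed on Illumina chips by stalled E. coli RNA polymerase and titrated with SNAP-549-labelled MS2 coat protein from 0.7 or 1.5 nM, doubling to 3 µM. Step length ran from 0.8–1.5 h at the lowest concentration to 10–20 min at the highest. The apparent KD is the median over clusters for each design, from curve-fitted normalised cluster fluorescence.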

[1] = input ligand: microRNA oligo, concentration not stated
[2] = Eterna round: R95, input ligand: FMN 200 uM
[3] = Eterna round: R95, input ligand: microRNA oligo, concentration not stated
[4] = Eterna round: R95, input ligand: none

Row | Sequence | apparent KD of MS2 coat protein (input ligand: FMN 200 uM) [nM] | apparent KD of MS2 coat protein [1] [nM] | apparent KD of MS2 coat protein (input ligand: none) [nM] | apparent KD of MS2 coat protein [2] [nM] | apparent KD of MS2 coat protein [3] [nM] | apparent KD of MS2 coat protein [4] [nM]
1 | AGUACUAACACGGGUGUGUUAGUACAAUAAGCUUGUGAAACAUGAGGAUCACCCAUGUCCUCAUAAGCUCGUCUUAU [salish99_TOv2_r3_075] (Eterna round: R96, puzzle: Sensor v3, turn-off variant 2) | 15.3 | 503 | 16.6 |  |  | 
2 | AGUACUAACACGGGUGUGUUAGUACAAUAAGCUUGUGAAACAUGAGGAUCACCCAUGUCCUCAUAAGCUCGUCUUAU [salish99_TOv2_r3_075] (puzzle: Sensor v3, turn-off variant 2) |  |  |  | 15.4 | 926 | 14.4
3 | AGUACUACCACGAAAGUGUUAGUACAAUAAGCUUGUGAAACAUGAGGAUCACCCAUGUCCUCAUAAGCUCGUCUUAU [salish99_TOv2_r3_021] (puzzle: Sensor v3, turn-off variant 2) |  |  |  | 16.7 | 524 | 16.5
4 | AGUACUAUCACGAAAGUGUUAGUACAAUAAGCUUGUGAAACAUGAGGAUCACCCAUGUCCUCAUAAGCUCGUCUUAU [salish99_TOv2_r3_019] (Eterna round: R96, puzzle: Sensor v3, turn-off variant 2) | 15.8 | 467 | 17.8 |  |  | 
5 | AGUACUAUCACGAAAGUGUUAGUACAAUAAGCUUGUGAAACAUGAGGAUCACCCAUGUCCUCAUAAGCUCGUCUUAU [salish99_TOv2_r3_019] (puzzle: Sensor v3, turn-off variant 2) |  |  |  | 16.9 | 868 | 15.7
6 | AGUACUAUGCGAGCUGACUUGCGUAGUGCAGCAGGUGUAACAUGAGGAUCACCCAUGUCCUCAUUUGCUCGUCUUAA [Mat - Sensor v3 - Turn-off var 2 - D9] (puzzle: Sensor v3, turn-off variant 2) |  |  |  | 240 | 288 | 235
7 | AGUACUCUCACGAAAGUGAGAGUACAAAAAGCAAGUGAAACAUGAGGAUCACCCAUGUCCUCAUUUGCUCGUCUUAU [Mat - Sensor v2 -ver2- JL mod - D88] (Eterna round: R96, puzzle: Sensor v2, turn-off variant 2) | 11.8 | 413 | 14.4 |  |  | 
8 | AGUAGGUCUACCUUGGUGGAUCUGCAUUUUUGCAGGUGUACAUGAGGAUCACCCAUGUCCUCAUUUGCUCGUCUUAU [JL turnoff v2 99.30] (Eterna round: R96, puzzle: Sensor v3, turn-off variant 2) | 555 | 599 | 508 |  |  | 
9 | AGUAGGUCUACCUUGGUGGAUCUGCAUUUUUGCAGGUGUACAUGAGGAUCACCCAUGUCCUCAUUUGCUCGUCUUAU [JL turnoff v2 99.30] (puzzle: Sensor v3, turn-off variant 2) |  |  |  | 488 | 629 | 473
10 | AGUAGUAGUGUCCGAUCCUACAUGAGGAUCACCCAUGUAGCUAGACGUGCACGCGAUGCUCGUCAGACUACCAGAUG [salish99_TOv1_r3_046] (puzzle: Sensor v3, turn-off variant 1) |  |  |  | 83.7 | 88.7 | 129
11 | AGUAUGCGGCAGGAUAUCCAUCCGCGGUGAGGUGGAGAAGGGCUGACAUGAGGAUCACCCAUGUGCGUCCUGUA [salish99_ex6_r4_027] (Eterna round: R97, puzzle: Exclusion 6) | 29.4 |  | 21 |  |  | 
12 | AGUAUGUCAGGAUAUCUCGGGUAGUCGACAACGGCUACCGAAGAGAAGGGACAUGAGGAUCACCCAUGUACCAU [EX4 B.26] (Eterna round: R97, puzzle: Exclusion 4) | 28.3 |  | 24.9 |  |  | 
13 | AGUCAGGCGGUAGGAUAUCCAAAUCGAGUGACCCUCUCAUAACAUGAGGAUCACCCAUGUCGGUGGGAGAAGGGCCGUAAGGCG [Mat - Exclusion NG 2 - Mod of JL - D63] (Eterna round: R96, puzzle: Exclusion NG 2) | 48.2 | 25.8 | 29.5 |  |  | 
14 | AGUGCGUCAGGAUAUUCUAUUAAUUACAUGAGGAUCACCCAUGUGAAUGGACAAGGGUGUGAAGAAGGGACGUGCG [Omei Ex5 A17g] (Eterna round: R97, puzzle: Exclusion 5) | 360 |  | 872 |  |  | 
15 | AGUGUGUGGCAGGAUAUGCAAUUAAUAGGUGAAGCAGAAGGGUCUACAUGAGGAUCACCCAUGUAUGCGGUUGA [Ex6 #23] (Eterna round: R97, puzzle: Exclusion 6) | 297 |  | 68.5 |  |  | 
16 | AGUGUGUGGCAGGAUAUGCGAUUUGUAAGUGUUGCAGAAGGGUCUACAUGAGGAUCACCCAUGUGUGCGGUUGA [Ex6 #13] (Eterna round: R97, puzzle: Exclusion 6) | 658 |  | 516 |  |  | 
17 | AGUGUGUGGCAGGAUAUGCUGUUGAUUGGUGGAGCAGAAGGGUCUACAUGAGGAUCACCCAUGUAAGCGGUUGA [Ex6 #30] (Eterna round: R97, puzzle: Exclusion 6) | 125 |  | 36.5 |  |  | 
18 | AGUUAGAUAGGAUAUGCCCGAGAUAACAUGAGGAUCACCCAUGUGACCGAGUCUAUUCUAGCAGAAGGGUUUAUGA [Mod of ViennaUCT 20 - Jieux - Exclusion 5] (Eterna round: R97, puzzle: Exclusion 5) | 17.8 |  | 18.3 |  |  | 
19 | AGUUAUGCAGGAUAUUGCGGGCCAGACAUGAGGAUCACCCAUGUGUGGGAGUCCUGCGCGCGAGAAGGGCAGACAA [EX5 B.22] (Eterna round: R97, puzzle: Exclusion 5) | 28.9 |  | 20.4 |  |  | 
20 | AGUUCACAUGAGGAUCACCCAUGUGAGGAUAUGGUUUCGCUGGCCGUAGCCAGUGGAACCAGAAGGCGCGUGAU [Mat - Exclusion 1 - JL Mod - D15] (Eterna round: R97, puzzle: Exclusion 1) | 52.1 |  | 51 |  |  | 
21 | AGUUGGCGAGGAUAUACAUGAGGAUCACCCAUGUAUGAGAUAAAAGUGAGGUAAAUAUGUAGAAGGCGCUGACA [JR_Ex3_Sub078] (Eterna round: R97, puzzle: Exclusion 3) | 897 |  | 107 |  |  | 
22 | AGUUGGCGAGGAUAUACAUGAGGAUCACCCAUGUGAGAGAUACUAGUGAGGUCGAUGAGUAGAAGGCGCUGACA [Mat X3R4 m18] (Eterna round: R97, puzzle: Exclusion 3) | 186 |  | 142 |  |  | 

From the supplement of paper PMC9170038
